The values that follow come from PMC10673652, “PoWRKY71 is involved in Paeonia ostii resistance to drought stress by directly regulating light-harvesting chlorophyll a/b-binding 151 gene”.

Substitutions are numbered along the chain they refer to.

This series addresses PoWRKY71 (Paeonia ostii, UniProt A0AB38Z7I8 1-311). In words: EMSA; not stated in the material (EMSA as in Luan et al., ref. 58). The settings on record: protein: recombinant, tags: His, SUMO (pET-SUMO), blunt.

Sequence of PoWRKY71 (A0AB38Z7I8 entry or part of it): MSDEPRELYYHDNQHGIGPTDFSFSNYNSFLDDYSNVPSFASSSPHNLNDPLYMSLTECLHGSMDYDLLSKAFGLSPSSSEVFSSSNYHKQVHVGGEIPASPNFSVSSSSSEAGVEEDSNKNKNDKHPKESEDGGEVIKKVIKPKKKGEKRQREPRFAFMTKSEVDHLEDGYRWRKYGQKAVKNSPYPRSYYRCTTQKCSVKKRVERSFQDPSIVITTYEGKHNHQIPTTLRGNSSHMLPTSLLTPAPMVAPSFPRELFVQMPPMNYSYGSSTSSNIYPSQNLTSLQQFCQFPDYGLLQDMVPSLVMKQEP

B1: PoCAB151 promoter W-box probe (dsDNA)
DNA 1: GTGTTTCCTGCATTCGGTCAGCAACCAAATGACC
DNA 2: GGTCATTTGGTTGCTGACCGAATGCAGGAAACAC
Turning to B1, the binding result is reported as “binds”.

B2: PoCAB151 promoter W-box mutant probe (dsDNA)
DNA 1: B1 DNA 1 with G17A, T18A, C19A
DNA 2: B1 DNA 2 with G16T, A17T, C18T
In the case of B2, the binding result (label: biotin) is recorded as “no binding”.
